From patent US20220281976A1

Experiments:
human CD33 (human) [1] = molecular target: human CD33 (human) (UniProt P20138); assay: flow cytometry, human primary dendritic cells
human CD33 (human) [2] = molecular target: human CD33 (human) (UniProt P20138); assay: flow cytometry, human primary monocytes
human CD33 (human) [3] = molecular target: human CD33 (human) (UniProt P20138); assay: flow cytometry, human primary T cells
human CD33 (human) [4] = molecular target: human CD33 (human) (UniProt P20138); assay: flow cytometry, human primary macrophages

human CD33 (human), sequence (P20138 18-364): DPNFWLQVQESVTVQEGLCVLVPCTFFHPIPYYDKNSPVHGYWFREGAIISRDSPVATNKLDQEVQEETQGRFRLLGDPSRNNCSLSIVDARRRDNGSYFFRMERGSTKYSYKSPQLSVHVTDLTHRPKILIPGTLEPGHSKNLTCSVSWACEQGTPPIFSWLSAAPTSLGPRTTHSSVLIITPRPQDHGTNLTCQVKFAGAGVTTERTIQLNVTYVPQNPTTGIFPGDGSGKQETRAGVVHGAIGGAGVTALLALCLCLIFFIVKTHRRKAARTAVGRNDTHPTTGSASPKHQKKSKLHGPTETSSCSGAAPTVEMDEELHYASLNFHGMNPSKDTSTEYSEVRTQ

DC MFI (human CD33 (human) [1]): 178 | Monocyte MFI (human CD33 (human) [2]): 43.2 | T cell MFI (human CD33 (human) [3]): 42.9 | Macrophage MFI (human CD33 (human) [4]): 451
Substance: isotype control antibody
